In patent US20260001928A1 (CORTERIA PHARMACEUTICALS, priority 2022, published 2026):
*1 amine or outer side, *2 acyl side, *3 side chain or, on linkers, in order; H or OH if unused. Where no end group is shown, it is not given here. Side-chain parts run from the residue outwards. [ ]: non-standard residue; d: D form. The star is where a group is joined. C16 diacid = O=C(O)CCCCCCCCCCCCCCC(=O)*; γGlu = O=C(O)[C@H](CCC(=O)[*:2])N[*:1]; NMeV = CN[C@H](C(=O)O)C(C)C; Decanoyl = CCCCCCCCCC(=O)*; Api = NC1(C(=O)O)CCNCC1; Hexanoyl = CCCCCC(=O)*; Aib = CC(C)(N)C(=O)O

T1: CRF1R receptor (UniProt P34998 24-415, limits assumed)
T1 sequence (looked up): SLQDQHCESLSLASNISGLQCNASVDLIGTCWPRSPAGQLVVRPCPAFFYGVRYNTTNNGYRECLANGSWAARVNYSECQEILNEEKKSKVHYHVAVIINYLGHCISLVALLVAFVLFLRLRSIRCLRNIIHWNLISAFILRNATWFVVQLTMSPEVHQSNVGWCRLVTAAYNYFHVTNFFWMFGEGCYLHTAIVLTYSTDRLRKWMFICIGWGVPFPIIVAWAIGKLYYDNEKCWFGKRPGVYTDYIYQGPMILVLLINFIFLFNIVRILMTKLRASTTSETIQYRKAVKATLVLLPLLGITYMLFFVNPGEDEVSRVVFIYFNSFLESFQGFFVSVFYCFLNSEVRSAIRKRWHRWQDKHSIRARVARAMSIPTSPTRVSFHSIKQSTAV


Key:
[1] = biological target: human corticotropin-releasing factor 2a (CRF2a receptor) (human), Q13324; test: cell-based or functional assay
Sequence of human corticotropin-releasing factor 2a (CRF2a receptor) (human), Q13324 (Q13324 20-411): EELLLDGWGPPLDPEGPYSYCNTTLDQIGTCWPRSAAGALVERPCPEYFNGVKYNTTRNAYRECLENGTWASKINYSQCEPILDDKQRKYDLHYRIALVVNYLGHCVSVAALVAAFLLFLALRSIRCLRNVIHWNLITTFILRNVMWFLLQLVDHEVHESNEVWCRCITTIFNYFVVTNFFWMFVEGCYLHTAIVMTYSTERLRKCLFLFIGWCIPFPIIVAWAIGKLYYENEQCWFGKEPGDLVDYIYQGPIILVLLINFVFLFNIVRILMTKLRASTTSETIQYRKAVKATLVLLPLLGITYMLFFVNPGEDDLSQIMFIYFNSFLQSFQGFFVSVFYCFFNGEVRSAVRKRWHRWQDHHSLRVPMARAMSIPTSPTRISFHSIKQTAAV

CRF1R receptor = biological target: T1, CRF1R receptor; test: cell-based or functional assay

Binder | EC50 [nM] (cAMP) [1] | EC50 (CRF1R receptor) | Emax (% I) (CRF1R receptor)
Ac-IVLSLD[dV]PIALK([γGlu-C16 diacid])KILLEQEKQKKQREQAETN[Aib]QILAQV-NH2 (SMILES CC[C@H](C)[C@H](NC(C)=O)C(=O)N[C@H](C(=O)N[C@@H](CC(C)C)C(=O)N[C@@H](CO)C(=O)N[C@@H](CC(C)C)C(=O)N[C@@H](CC(=O)O)C(=O)N[C@@H](C(=O)N1CCC[C@H]1C(=O)N[C@H](C(=O)N[C@@H](C)C(=O)N[C@@H](CC(C)C)C(=O)N[C@@H](CCCCNC(=O)CC[C@H](NC(=O)CCCCCCCCCCCCCCC(=O)O)C(=O)O)C(=O)N[C@@H](CCCCN)C(=O)N[C@H](C(=O)N[C@@H](CC(C)C)C(=O)N[C@@H](CC(C)C)C(=O)N[C@@H](CCC(=O)O)C(=O)N[C@@H](CCC(N)=O)C(=O)N[C@@H](CCC(=O)O)C(=O)N[C@@H](CCCCN)C(=O)N[C@@H](CCC(N)=O)C(=O)N[C@@H](CCCCN)C(=O)N[C@@H](CCCCN)C(=O)N[C@@H](CCC(N)=O)C(=O)N[C@@H](CCCNC(=N)N)C(=O)N[C@@H](CCC(=O)O)C(=O)N[C@@H](CCC(N)=O)C(=O)N[C@@H](C)C(=O)N[C@@H](CCC(=O)O)C(=O)N[C@H](C(=O)N[C@@H](CC(N)=O)C(=O)NC(C)(C)C(=O)N[C@@H](CCC(N)=O)C(=O)N[C@H](C(=O)N[C@@H](CC(C)C)C(=O)N[C@@H](C)C(=O)N[C@@H](CCC(N)=O)C(=O)N[C@H](C(N)=O)C(C)C)[C@@H](C)CC)[C@@H](C)O)[C@@H](C)CC)[C@@H](C)CC)C(C)C)C(C)C) [SEQ ID NO 163] | 0.3 nM | 190 nM | 53%
Ac-IVLSLD[dV]PIKLK([γGlu-C16 diacid])KILLEQEKQKAQREQAETN[Aib]QILAQV-NH2 (SMILES CC[C@H](C)[C@H](NC(C)=O)C(=O)N[C@H](C(=O)N[C@@H](CC(C)C)C(=O)N[C@@H](CO)C(=O)N[C@@H](CC(C)C)C(=O)N[C@@H](CC(=O)O)C(=O)N[C@@H](C(=O)N1CCC[C@H]1C(=O)N[C@H](C(=O)N[C@@H](CCCCN)C(=O)N[C@@H](CC(C)C)C(=O)N[C@@H](CCCCNC(=O)CC[C@H](NC(=O)CCCCCCCCCCCCCCC(=O)O)C(=O)O)C(=O)N[C@@H](CCCCN)C(=O)N[C@H](C(=O)N[C@@H](CC(C)C)C(=O)N[C@@H](CC(C)C)C(=O)N[C@@H](CCC(=O)O)C(=O)N[C@@H](CCC(N)=O)C(=O)N[C@@H](CCC(=O)O)C(=O)N[C@@H](CCCCN)C(=O)N[C@@H](CCC(N)=O)C(=O)N[C@@H](CCCCN)C(=O)N[C@@H](C)C(=O)N[C@@H](CCC(N)=O)C(=O)N[C@@H](CCCNC(=N)N)C(=O)N[C@@H](CCC(=O)O)C(=O)N[C@@H](CCC(N)=O)C(=O)N[C@@H](C)C(=O)N[C@@H](CCC(=O)O)C(=O)N[C@H](C(=O)N[C@@H](CC(N)=O)C(=O)NC(C)(C)C(=O)N[C@@H](CCC(N)=O)C(=O)N[C@H](C(=O)N[C@@H](CC(C)C)C(=O)N[C@@H](C)C(=O)N[C@@H](CCC(N)=O)C(=O)N[C@H](C(N)=O)C(C)C)[C@@H](C)CC)[C@@H](C)O)[C@@H](C)CC)[C@@H](C)CC)C(C)C)C(C)C) [SEQ ID NO 161] | 0.32 nM |  | 3%
[NMeV]LSLD[dV]PIKLK([γGlu-C16 diacid])KILLEQEKQKKQREQAETN[Aib]QILAQV-NH2 (N-terminus assumed; SMILES CC[C@H](C)[C@H](NC(=O)[C@H](CCC(N)=O)NC(=O)C(C)(C)NC(=O)[C@H](CC(N)=O)NC(=O)[C@@H](NC(=O)[C@H](CCC(=O)O)NC(=O)[C@H](C)NC(=O)[C@H](CCC(N)=O)NC(=O)[C@H](CCC(=O)O)NC(=O)[C@H](CCCNC(=N)N)NC(=O)[C@H](CCC(N)=O)NC(=O)[C@H](CCCCN)NC(=O)[C@H](CCCCN)NC(=O)[C@H](CCC(N)=O)NC(=O)[C@H](CCCCN)NC(=O)[C@H](CCC(=O)O)NC(=O)[C@H](CCC(N)=O)NC(=O)[C@H](CCC(=O)O)NC(=O)[C@H](CC(C)C)NC(=O)[C@H](CC(C)C)NC(=O)[C@@H](NC(=O)[C@H](CCCCN)NC(=O)[C@H](CCCCNC(=O)CC[C@H](NC(=O)CCCCCCCCCCCCCCC(=O)O)C(=O)O)NC(=O)[C@H](CC(C)C)NC(=O)[C@H](CCCCN)NC(=O)[C@@H](NC(=O)[C@@H]1CCCN1C(=O)[C@H](NC(=O)[C@H](CC(=O)O)NC(=O)[C@H](CC(C)C)NC(=O)[C@H](CO)NC(=O)[C@H](CC(C)C)NC(=O)[C@@H](NC)C(C)C)C(C)C)[C@@H](C)CC)[C@@H](C)CC)[C@@H](C)O)C(=O)N[C@@H](CC(C)C)C(=O)N[C@@H](C)C(=O)N[C@@H](CCC(N)=O)C(=O)N[C@H](C(N)=O)C(C)C) [SEQ ID NO 159] | 2.97 nM |  | 4%
Ac-IVLSLD[dV]PIKLK([γGlu-C16 diacid])KILLEQEKQK[Aib]QREQAETN[Aib]QILAQV-NH2 [SEQ ID NO 162] | 0.49 nM |  | 0%
Decanoyl-VLSLD[dV]PIKLK([γGlu-C16 diacid])KILLEQEKQKKQREQAETN[Aib]QILAQV-NH2 (SMILES CCCCCCCCCC(=O)N[C@H](C(=O)N[C@@H](CC(C)C)C(=O)N[C@@H](CO)C(=O)N[C@@H](CC(C)C)C(=O)N[C@@H](CC(=O)O)C(=O)N[C@@H](C(=O)N1CCC[C@H]1C(=O)N[C@H](C(=O)N[C@@H](CCCCN)C(=O)N[C@@H](CC(C)C)C(=O)N[C@@H](CCCCNC(=O)CC[C@H](NC(=O)CCCCCCCCCCCCCCC(=O)O)C(=O)O)C(=O)N[C@@H](CCCCN)C(=O)N[C@H](C(=O)N[C@@H](CC(C)C)C(=O)N[C@@H](CC(C)C)C(=O)N[C@@H](CCC(=O)O)C(=O)N[C@@H](CCC(N)=O)C(=O)N[C@@H](CCC(=O)O)C(=O)N[C@@H](CCCCN)C(=O)N[C@@H](CCC(N)=O)C(=O)N[C@@H](CCCCN)C(=O)N[C@@H](CCCCN)C(=O)N[C@@H](CCC(N)=O)C(=O)N[C@@H](CCCNC(=N)N)C(=O)N[C@@H](CCC(=O)O)C(=O)N[C@@H](CCC(N)=O)C(=O)N[C@@H](C)C(=O)N[C@@H](CCC(=O)O)C(=O)N[C@H](C(=O)N[C@@H](CC(N)=O)C(=O)NC(C)(C)C(=O)N[C@@H](CCC(N)=O)C(=O)N[C@H](C(=O)N[C@@H](CC(C)C)C(=O)N[C@@H](C)C(=O)N[C@@H](CCC(N)=O)C(=O)N[C@H](C(N)=O)C(C)C)[C@@H](C)CC)[C@@H](C)O)[C@@H](C)CC)[C@@H](C)CC)C(C)C)C(C)C) [SEQ ID NO 158] | 0.04 nM | 98.7 nM | 54%

Further lines, results first:

EC50 [nM] (cAMP) [1] | EC50 (CRF1R receptor) | Emax (% I) (CRF1R receptor) | Binder
2.08 nM |  | 2% | [NMeV]LSLD[dV]PIKLK([γGlu-C16 diacid])KILLEQEKQKKQREQAETN[Api]QILAQV-NH2 (N-terminus assumed; SMILES CC[C@H](C)[C@H](NC(=O)[C@H](CCC(N)=O)NC(=O)C1(NC(=O)[C@H](CC(N)=O)NC(=O)[C@@H](NC(=O)[C@H](CCC(=O)O)NC(=O)[C@H](C)NC(=O)[C@H](CCC(N)=O)NC(=O)[C@H](CCC(=O)O)NC(=O)[C@H](CCCNC(=N)N)NC(=O)[C@H](CCC(N)=O)NC(=O)[C@H](CCCCN)NC(=O)[C@H](CCCCN)NC(=O)[C@H](CCC(N)=O)NC(=O)[C@H](CCCCN)NC(=O)[C@H](CCC(=O)O)NC(=O)[C@H](CCC(N)=O)NC(=O)[C@H](CCC(=O)O)NC(=O)[C@H](CC(C)C)NC(=O)[C@H](CC(C)C)NC(=O)[C@@H](NC(=O)[C@H](CCCCN)NC(=O)[C@H](CCCCNC(=O)CC[C@H](NC(=O)CCCCCCCCCCCCCCC(=O)O)C(=O)O)NC(=O)[C@H](CC(C)C)NC(=O)[C@H](CCCCN)NC(=O)[C@@H](NC(=O)[C@@H]2CCCN2C(=O)[C@H](NC(=O)[C@H](CC(=O)O)NC(=O)[C@H](CC(C)C)NC(=O)[C@H](CO)NC(=O)[C@H](CC(C)C)NC(=O)[C@@H](NC)C(C)C)C(C)C)[C@@H](C)CC)[C@@H](C)CC)[C@@H](C)O)CCNCC1)C(=O)N[C@@H](CC(C)C)C(=O)N[C@@H](C)C(=O)N[C@@H](CCC(N)=O)C(=O)N[C@H](C(N)=O)C(C)C) [SEQ ID NO 160]
0.32 nM |  | 30% | Hexanoyl-VLSLD[dV]PIKLK([γGlu-C16 diacid])KILLEQEKQKKQREQAETN[Api]QILAQV-NH2 (SMILES CCCCCC(=O)N[C@H](C(=O)N[C@@H](CC(C)C)C(=O)N[C@@H](CO)C(=O)N[C@@H](CC(C)C)C(=O)N[C@@H](CC(=O)O)C(=O)N[C@@H](C(=O)N1CCC[C@H]1C(=O)N[C@H](C(=O)N[C@@H](CCCCN)C(=O)N[C@@H](CC(C)C)C(=O)N[C@@H](CCCCNC(=O)CC[C@H](NC(=O)CCCCCCCCCCCCCCC(=O)O)C(=O)O)C(=O)N[C@@H](CCCCN)C(=O)N[C@H](C(=O)N[C@@H](CC(C)C)C(=O)N[C@@H](CC(C)C)C(=O)N[C@@H](CCC(=O)O)C(=O)N[C@@H](CCC(N)=O)C(=O)N[C@@H](CCC(=O)O)C(=O)N[C@@H](CCCCN)C(=O)N[C@@H](CCC(N)=O)C(=O)N[C@@H](CCCCN)C(=O)N[C@@H](CCCCN)C(=O)N[C@@H](CCC(N)=O)C(=O)N[C@@H](CCCNC(=N)N)C(=O)N[C@@H](CCC(=O)O)C(=O)N[C@@H](CCC(N)=O)C(=O)N[C@@H](C)C(=O)N[C@@H](CCC(=O)O)C(=O)N[C@H](C(=O)N[C@@H](CC(N)=O)C(=O)NC1(C(=O)N[C@@H](CCC(N)=O)C(=O)N[C@H](C(=O)N[C@@H](CC(C)C)C(=O)N[C@@H](C)C(=O)N[C@@H](CCC(N)=O)C(=O)N[C@H](C(N)=O)C(C)C)[C@@H](C)CC)CCNCC1)[C@@H](C)O)[C@@H](C)CC)[C@@H](C)CC)C(C)C)C(C)C) [SEQ ID NO 157]
